In the supplement of paper PMC7877785:
± gives the uncertainty stated by the source.

Experiment: self-splicing fitness, log relative to wild type (ln ratio); higher = more splicing; Tetrahymena group I intron in knt gene, E. coli kanamycin selection, DiMSum; sequences stand for … in CUCUCU…GGAGGGAAAAGUUAUCAGGCAUGCACCUGGUAGCUAGUCUUUAAACCAAUAGAUUGCAUCGGUUUAAAAGGCAAGACCGUCAAAUUGCGGGAAAGGGGUCAACAGCCGUUCAGUACCAAGUCUCAGGGGAAACUUUGAGAUGGCCUUGCAAAGGGUAUGGUAAUAAGCUGACGGACAUGGUCCUAACCACGCAGCCAAGUCCUAAGUCAACAGAUCUUCUGUUGAUAUGGAUGCAGUUCACAGACUAAAUGUCGGUCGGGGAAGAUGUAUUCUUCUCAUAAGAUAUAGUCGGACCUCUCCUUAAUGGGAGCUAGCGGAUGAAGUGAUGCAACACUGGAGCCGCUGGGAACUAAUUUGUAUGCGAAAGUAUAUUGAUUAGUUUUGGAGUACUCGUGGUCG
Summary of the method: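 DiMSum derived fitness as the error-weighted combination of fold changes across replicates, kanamycin versus no kanamycin, normalised to wild type. E. coli BL21(DE3) held the library, which randomised all eight P1ex-region intron nucleotides within the knt kanamycin-resistance gene on pET-22b(+). Six replicate transformations grew overnight at 37°C or 30°C on LB agar with or without 25 μg/mL kanamycin, also containing 100 μg/mL carbenicillin, 50 μM IPTG and 0.2% rhamnose, and pooled colonies were amplicon-sequenced on an Illumina HiSeq 2500.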

Sequence	self-splicing fitness (ln) (30 °C)	self-splicing fitness (ln) (37 °C)
CUGAAGCAAUAUUACGAGCC	-3.13 ± 0.31	
CAAAAGCAAUAUUACGCUCG	-1.25 ± 0.12	-0.455 ± 0.12
UCUAAGCAAUAUUACGCAGU	-1.86 ± 0.16	-1.24 ± 0.15
UCUCAGCAAUAUUACGAUGG	-0.935 ± 0.11	-1 ± 0.14
AGUAAGCAAUAUUACGGAGA	-3.47 ± 0.32	-2.44 ± 0.42
CCCCAGCAAUAUUACGUCCG		-2.09 ± 0.28
GGAGAGCAAUAUUACGAGUC	-3.63 ± 0.35	
CGUGAGCAAUAUUACGGCAG	-0.858 ± 0.11	-0.441 ± 0.14
CGGUAGCAAUAUUACGGACU	-1.25 ± 0.16	-0.871 ± 0.2
UACUAGCAAUAUUACGCGCU	-3.19 ± 0.18	-1.8 ± 0.15
GGCGAGCAAUAUUACGUCCU	-2.41 ± 0.1	-1.28 ± 0.09
UAGAAGCAAUAUUACGCAUG	-1.12 ± 0.1	0.583 ± 0.12
UGGGAGCAAUAUUACGCACU	-3.4 ± 0.35	-1.76 ± 0.33
AUUAAGCAAUAUUACGUGAA	-1.55 ± 0.14	-1.5 ± 0.11
AGCCAGCAAUAUUACGGGCU	-4.03 ± 0.25	-2.5 ± 0.21
AACAAGCAAUAUUACGAAGU	-2.46 ± 0.085	-1.29 ± 0.099
GACCAGCAAUAUUACGUUUG	-2.55 ± 0.073	-1.42 ± 0.081
UCUAAGCAAUAUUACGCACA	-2.26 ± 0.39	-0.556 ± 0.47
UAUUAGCAAUAUUACGUAGA	-2.62 ± 0.19	-1.38 ± 0.19
GUGAAGCAAUAUUACGCGAA	-1.56 ± 0.11	-0.479 ± 0.12

Sequence	self-splicing fitness (ln) (30 °C)	self-splicing fitness (ln) (37 °C)
UCCAAGCAAUAUUACGGCUA	-1.98 ± 0.14	-0.476 ± 0.11
GCCAAGCAAUAUUACGUGGA	-0.758 ± 0.049	-0.303 ± 0.052
CUAGAGCAAUAUUACGAAAA	-1.94 ± 0.44	
GGAUAGCAAUAUUACGGGAC	-2.5 ± 0.24	-2.15 ± 0.17
UAUUAGCAAUAUUACGACGG	-0.886 ± 0.35	0.0207 ± 0.33
CAACAGCAAUAUUACGCAUG	-2.41 ± 0.11	-1.27 ± 0.14
GCGCAGCAAUAUUACGCCGC	-2.28 ± 0.35	-1.44 ± 0.49
AAAGAGCAAUAUUACGUAUA	-3.45 ± 0.37	-1.89 ± 0.32
AUCCAGCAAUAUUACGCGCU	-3.57 ± 0.22	-2.37 ± 0.22
GUAAAGCAAUAUUACGCCCA	0.335 ± 0.062	0.419 ± 0.085
UGUAAGCAAUAUUACGCUAG	-1.82 ± 0.1	-0.0644 ± 0.099
CCCGAGCAAUAUUACGAAUA	-3.44 ± 0.2	-2.89 ± 0.21
AAUAAGCAAUAUUACGUAGU	-3.14 ± 0.15	-2.15 ± 0.19
CUAUAGCAAUAUUACGAGUG	-0.752 ± 0.071	0.361 ± 0.1
UGGUAGCAAUAUUACGAGCA	-0.502 ± 0.15	-0.131 ± 0.21
ACCUAGCAAUAUUACGUAGG	-3.59 ± 0.2	-2.93 ± 0.21
UCUUAGCAAUAUUACGGAGA		-2.76 ± 0.38
UUGAAGCAAUAUUACGCCGG	-0.0467 ± 0.11	0.0153 ± 0.15
AAGGAGCAAUAUUACGCACC		-1.22 ± 0.3
AACGAGCAAUAUUACGAUUC		0.32 ± 0.17
